Experimental data as given in publication PMC11672753.

Molecular target: SARS-CoV-2 6P-mut7 spike protein (SARS-CoV-2) (UniProt P0DTC2)
Experiment: cryo-EM structure

Work on COVA2-15 Fab yielded a stoichiometry N (Fab per spike trimer) of 3.
